Reference: the supplement of paper PMC9112550, “Optimization of the antimicrobial peptide Bac7 by deep mutational scanning” (BMC Biology, 2022)

The sequences below were run on Escherichia coli TOP10 (assay: shrunken log2 fold change of peptide-encoding DNA abundance (4.5 h post-induction vs induction); higher = less antimicrobial activity (less host growth inhibition)). Conditions: time post-induction: 4.5 h; library: site-saturation at positions 5, 18, 19, 20.
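Note: peptides expressed intracellularly from a pBAD plasmid library in pooled LB shake-flask culture, induced with 0.3% L-arabinose, DNA abundance read by NGS, three biological replicates, DESeq2 with apeglm shrinkage.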

In order of rising “shrunken log2 fold change” value:
1. RRIRIRPPRLPRPRPRPHRMPRP  -1.01
2. RRIRYRPPRLPRPRPRPLNAPRP  -0.859
3. RRIRYRPPRLPRPRPRPKYWPRP  -0.726
4. RRIRIRPPRLPRPRPRPLYGPRP  -0.702
5. RRIRSRPPRLPRPRPRPNHDPRP  -0.69
6. RRIRYRPPRLPRPRPRPMMHPRP  -0.626
7. RRIRSRPPRLPRPRPRPYWFPRP  -0.624
8. RRIRTRPPRLPRPRPRPNMDPRP  -0.508
9. RRIRQRPPRLPRPRPRPTCVPRP  -0.442
10. RRIRTRPPRLPRPRPRPNLIPRP  -0.408
11. RRIRRRPPRLPRPRPRPYYMPRP  -0.408
12. RRIRRRPPRLPRPRPRPQFSPRP  -0.326
13. RRIRLRPPRLPRPRPRPYFQPRP  -0.269
14. RRIRVRPPRLPRPRPRPLMCPRP  -0.268
15. RRIRNRPPRLPRPRPRPILYPRP  -0.267
16. RRIRCRPPRLPRPRPRPSVVPRP  -0.261
17. RRIRLRPPRLPRPRPRPNMGPRP  -0.25
18. RRIRERPPRLPRPRPRPYRVPRP  -0.236
19. RRIRSRPPRLPRPRPRPYWWPRP  -0.231
20. RRIRNRPPRLPRPRPRPIHVPRP  -0.224
21. RRIRPRPPRLPRPRPRPNLSPRP  -0.168
22. RRIRTRPPRLPRPRPRPNFRPRP  -0.152
23. RRIRVRPPRLPRPRPRPQLHPRP  -0.147
24. RRIRRRPPRLPRPRPRPCLPPRP  -0.132
25. RRIRARPPRLPRPRPRPFWKPRP  -0.13
26. RRIRVRPPRLPRPRPRPLLHPRP  -0.114
27. RRIRMRPPRLPRPRPRPLGMPRP  -0.112
28. RRIRKRPPRLPRPRPRPNMWPRP  -0.109
29. RRIRARPPRLPRPRPRPYWRPRP  -0.096
30. RRIRSRPPRLPRPRPRPVILPRP  -0.0746
31. RRIRQRPPRLPRPRPRPCNPPRP  -0.0715
32. RRIRNRPPRLPRPRPRPINEPRP  -0.056
33. RRIRIRPPRLPRPRPRPHCTPRP  -0.0502
34. RRIRQRPPRLPRPRPRPSWPPRP  -0.0496
35. RRIRERPPRLPRPRPRPDCEPRP  -0.0494
36. RRIRARPPRLPRPRPRPCTGPRP  -0.041
37. RRIRERPPRLPRPRPRPHRAPRP  -0.0349
38. RRIRSRPPRLPRPRPRPWVDPRP  -0.0314
39. RRIRKRPPRLPRPRPRPLTNPRP  -0.0294
40. RRIRVRPPRLPRPRPRPICMPRP  -0.0265
41. RRIRRRPPRLPRPRPRPCSEPRP  -0.0216
42. RRIRPRPPRLPRPRPRPENDPRP  -0.0164
43. RRIRFRPPRLPRPRPRPVWHPRP  -0.0142
44. RRIRYRPPRLPRPRPRPCAQPRP  -0.00639
45. RRIRTRPPRLPRPRPRPNFQPRP  0.00569
46. RRIRVRPPRLPRPRPRPIQYPRP  0.0111
47. RRIRVRPPRLPRPRPRPYRIPRP  0.0112
48. RRIRFRPPRLPRPRPRPLVDPRP  0.0316
49. RRIRKRPPRLPRPRPRPFQPPRP  0.0366
50. RRIRVRPPRLPRPRPRPIARPRP  0.0436
51. RRIRARPPRLPRPRPRPEHGPRP  0.0464
52. RRIRMRPPRLPRPRPRPMEAPRP  0.0555
53. RRIRMRPPRLPRPRPRPDLYPRP  0.0737
54. RRIRTRPPRLPRPRPRPFRPPRP  0.0775
55. RRIRWRPPRLPRPRPRPTLGPRP  0.079
56. RRIRDRPPRLPRPRPRPKDRPRP  0.0874
57. RRIRHRPPRLPRPRPRPEGIPRP  0.0992
58. RRIRTRPPRLPRPRPRPQSMPRP  0.13
59. RRIRERPPRLPRPRPRPIANPRP  0.158
60. RRIRSRPPRLPRPRPRPPWMPRP  0.167
61. RRIRWRPPRLPRPRPRPQGQPRP  0.203
62. RRIRWRPPRLPRPRPRPPFSPRP  0.222
63. RRIRWRPPRLPRPRPRPSLTPRP  0.282
64. RRIRDRPPRLPRPRPRPEHAPRP  0.294
65. RRIRRRPPRLPRPRPRPAIWPRP  0.356
66. RRIRSRPPRLPRPRPRPFFWPRP  0.485
67. RRIRDRPPRLPRPRPRPTVWPRP  0.527
68. RRIRWRPPRLPRPRPRPDIDPRP  0.546
69. RRIRARPPRLPRPRPRPEFQPRP  0.666
70. RRIRMRPPRLPRPRPRPGVWPRP  0.723
71. RRIRMRPPRLPRPRPRPRKPPRP  0.915
72. RRIRGRPPRLPRPRPRPGECPRP  0.959
73. RRIRWRPPRLPRPRPRPAPKPRP  0.992
74. RRIRKRPPRLPRPRPRPGPEPRP  1.1
75. RRIRFRPPRLPRPRPRPSPWPRP  1.82
